Reference: US20240228562A1 (Pieris, published 2024)

T1: mouse CTGF (Abbexa) (mouse, UniProt P29268 26-348, limits assumed)
T1 construct: also called Murine CTGF; mCTGF
T1 sequence (looked up): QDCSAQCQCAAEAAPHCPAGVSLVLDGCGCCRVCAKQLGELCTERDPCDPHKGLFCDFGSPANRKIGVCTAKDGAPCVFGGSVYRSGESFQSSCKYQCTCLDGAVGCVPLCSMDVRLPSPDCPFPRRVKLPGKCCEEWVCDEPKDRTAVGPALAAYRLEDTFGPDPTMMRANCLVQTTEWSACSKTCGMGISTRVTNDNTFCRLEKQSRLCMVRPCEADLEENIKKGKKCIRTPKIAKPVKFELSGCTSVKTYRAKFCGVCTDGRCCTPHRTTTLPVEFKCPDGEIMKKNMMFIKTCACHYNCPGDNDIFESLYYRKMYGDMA


Columns and labels:
[1] = target: T2, recombinant human CTGF-Fc protein (Creative Biomart) (human); assay: SPR (Biacore)
T2 construct: Bought; also called human CTGF with a human IgG1 Fc Tag
T2 sequence (chain, as listed by the source limits assumed): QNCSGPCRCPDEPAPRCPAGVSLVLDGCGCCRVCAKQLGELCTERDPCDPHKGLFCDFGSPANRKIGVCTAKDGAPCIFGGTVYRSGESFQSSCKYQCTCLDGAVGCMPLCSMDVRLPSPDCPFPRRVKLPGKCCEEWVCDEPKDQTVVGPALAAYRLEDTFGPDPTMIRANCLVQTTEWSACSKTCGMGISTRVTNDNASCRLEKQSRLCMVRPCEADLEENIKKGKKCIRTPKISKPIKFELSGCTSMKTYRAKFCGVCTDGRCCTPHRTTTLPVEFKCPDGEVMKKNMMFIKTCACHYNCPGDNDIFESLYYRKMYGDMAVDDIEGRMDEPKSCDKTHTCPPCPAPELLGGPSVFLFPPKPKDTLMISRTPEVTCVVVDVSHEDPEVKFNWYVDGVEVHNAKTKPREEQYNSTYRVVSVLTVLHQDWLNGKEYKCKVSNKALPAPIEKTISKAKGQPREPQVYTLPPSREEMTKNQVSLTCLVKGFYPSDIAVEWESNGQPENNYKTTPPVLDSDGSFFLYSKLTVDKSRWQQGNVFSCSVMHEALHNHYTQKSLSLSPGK
Description: (§1) The binding of exemplary lipocalin muteins to human (Creative Biomart), cynomolgus, rat (R&D Systems) and mouse CTGF (Abbexa) was determined by SPR using a Biacore instrument (Cytiva, formerly GE Healthcare). Some targets were fused to a human IgG1 Fc tag, and captured via the anti-human IgG antibody kit, others were directly immobilized.
(§2) For some measurements, human CTGF with a human IgG1 Fc Tag or rat or murine CTGF without a tag were directly immobilized to a CM5 Chip. The carboxyl groups on the chip were activated using 1-ethyl-3-(3-dimethylaminopropyl)-carbodiimide (EDC) and N-hydroxysuccinimide (NHS). […] Residual non-reacted NHS-esters were blocked by passing a solution of 1 M ethanolamine across the surface. The reference channel was activated/deactivated. For the capture setting, targets with an IgG Fc Tag at 0.25-2.5 μg/mL in HBS-EP+ buffer were captured by the anti-human IgG-Fc antibody at the chip surface for 180 s at a flow rate of 10 μL/min.
(§3) The binding assay was carried out with a contact time of 180 s, a dissociation time of 900-3600 s and a flow rate of 30 μL/min. All measurements were performed at 25° C. […] For the directly immobilized targets, the same regeneration conditions were used. Prior to the protein measurements, three startup cycles were performed for conditioning purposes.

mouse CTGF (Abbexa) = target: T1, mouse CTGF (Abbexa); assay: SPR (Biacore)
Description: as §1, §2, §3

binding result [1]	Kd (mouse CTGF (Abbexa))	koff (mouse CTGF (Abbexa))	kon (mouse CTGF (Abbexa))	Kd [1]	koff [1]	kon [1]	Binder
binds	–	–	–	–	–	–	lipocalin mutein of SEQ ID NO: 4 (designed binder, also called optimized lipocalin mutein; hNGAL mutein) QDSTSDLIPAPPLSKVPLQQNFQDNQFHGKWYVVGRAGNNRLREDKDPPKMWATIYELKEDKSYDVTHVHFMTKKCRYIIDTFVPGSQPGEFTLGAIKSGPGMTSPLVRIVSTNYNQHAMVFFKWVNQNREWFTITLYGRTKELTSELKENFIRFSKSLGLPENHIVFPVPIDQCIDG
binds	–	–	–	–	–	–	lipocalin mutein of SEQ ID NO: 30 (designed binder, also called optimized lipocalin mutein; hNGAL mutein) QDSTSDLIPAPPLSKVPLQQNFQDNQFHGKWYVVGWAGNIKLREDKDPFKMSATIYELKEDKSYDVTEVVFEQKKCHYIIKTFVPGSQPGEFTLGDIKSPPGETSSLVRVVSTNYNQHAMVFFKKVFQNREFFWITLYGRTKELTSELKENFIRFSKSLGLPENHIVFPVPIDQCIDG
–	0.393 nM	6.34e-05 s⁻¹	161000 M⁻¹ s⁻¹	0.76 nM	7.02e-05 s⁻¹	92300 M⁻¹ s⁻¹	lipocalin mutein of SEQ ID NO: 16 (designed binder, also called hNGAL mutein; not shown: C-terminal His-tag) QDSTSDLIPAPPLSKVPLQQNFQDNQFQGKWYVVGLAGNAILRTDKQPAKMFATIYELKEDKSYDVTSVRFEAKSCVYTIKTFVPGSQPGEFTAGNIKSAPGQTSTLVRVVSTNYNQHAMVFFKHVSQNREFFVITLYGRTKELTSELKENFIRFSKSLGLPENHIVFPVPIDQCIDG
–	1.02 nM	8.19e-05 s⁻¹	80100 M⁻¹ s⁻¹	2.44 nM	0.000108 s⁻¹	44400 M⁻¹ s⁻¹	lipocalin mutein of SEQ ID NO: 11 (designed binder, also called hNGAL mutein; not shown: C-terminal His-tag) QDSTSDLIPAPPLSKVPLQQNFQDNQFQGKWYVVGLAGNAILREDKQPAKMFATIYELKEDKSYDVTSVRFEAKSCSYTSKTFVPGSQPGEFTAGNIKSAPGQTSTLVRVVSTNYNQHAMVFFKHVSQNRETFVITLYGRTKELTSELKENFIRFSKSLGLPENHIVFPVPIDQCIDG
–	0.369 nM	7.03e-05 s⁻¹	190000 M⁻¹ s⁻¹	0.523 nM	5.34e-05 s⁻¹	102000 M⁻¹ s⁻¹	lipocalin mutein of SEQ ID NO: 14 (designed binder, also called hNGAL mutein; not shown: C-terminal His-tag) QDSTSDLIPAPPLSKVPLQQNFQDNQFQGKWYVVGLAGNAILREDKYPAKMFATIYELKEDKSYDVTSVRFEAKSCIYTIKTFVPGSQPGEFTRGNIKSAPGQTSTLVRVVSTNYNQHAMVFFKHVSQNREIFVITLYGRTKELTSELKENFIRFSKSLGLPENHIVFPVPIDQCIDG
–	–	–	–	0.049 nM	2.51e-06 s⁻¹	51000 M⁻¹ s⁻¹	lipocalin mutein of SEQ ID NO: 13 (designed binder, also called hNGAL mutein; not shown: C-terminal His-tag) QDSTSDLIPAPPLSKVPLQQNFQDNQFQGKWYVVGLAGNAILREDKYPAKMFATIYELKEDKSYDVTSVRFENKSCVYTSKTFVPGSQPGEFTTGNIKSAPGQTSTLVRVVSTNYNQHAMVFFKHVSQNREFFVITLYGRTKELTSELKENFIRFSKSLGLPENHIVFPVPIDQCIDG
–	–	–	–	0.074 nM	3.05e-06 s⁻¹	40900 M⁻¹ s⁻¹	lipocalin mutein of SEQ ID NO: 18 (designed binder, also called hNGAL mutein; not shown: C-terminal His-tag) QDSTSDLIPAPPLSKVPLQQNFQDNQFQGKWYVVGIAGNAILRDDKYPAKMFATIYELKEDKSYDVTSVRFENKSCIYTIKTFVPGSQPGEFTHGNIKSHPGQTSTLVRVVSTNYNQHAMVFFKHVSQNREIFVITLYGRTKELTSELKENFIRFSKSLGLPENHIVFPVPIDQCIDG
–	1.41 nM	0.000128 s⁻¹	91400 M⁻¹ s⁻¹	2.4 nM	0.000133 s⁻¹	55600 M⁻¹ s⁻¹	lipocalin mutein of SEQ ID NO: 12 (designed binder, also called hNGAL mutein; not shown: C-terminal His-tag) QDSTSDLIPAPPLSKVPLQQNFQDNQFQGKWYVVGLAGNAILREDKYPAKMFATIYELKEDKSYDVTSVRFENKSCVYTIKTFVPGSQPGEFTTGNIKSAPGQTSTLVRVVSTNYNQHAMVFFKHVSQNREFFVITLYGRTKELTSELKENFIRFSKSLGLPENHIVFPVPIDQCIDG
